# Assay: soluble on expression in E. coli; label from the status in PepcDB or PDB records
row,Sequence,soluble on expression in E. coli
1,MGSDKIHHHHHHPVWNPDNGNGTFTNPIMWGDWPDPDVIRVGDDFYFVSTSMHYVPGCPIATSKDLVNWKMAGYAVDRYDEDARYDLKGGDRYLRGSWAATIRHHNGKFYVGFCTPSWEGEGPGHFSICIADDVKGPWERTIFPEYLYDPGLLFDDDGKVYVFHGQGTLYVTELASDAKSVKGEKVKIWDKRFKNAHEFGGGYGMEGAHAYKINGKYYLTCPAGGTEGWQICLRSDNIYGPYEHKLIMNDSGSYPPNGLHQGGMVQLKNGDWWFIIMQDRGPIGRVPHLVPVKWVDGWPMLGSGGKDIITYPKPEVGKTYPFASPATTDEFNTSSLGLQWQWNHNPDNSRWSLKERKGHMRLKASYAESLKTARNTLTQRVQGPSSEATVELDVSGLKDGNVAGFGVFEFPYAYVAVEQTNGEKKIVMCNDGQTIETIDRFEGNKIWIRARVMDVGFRAVFYYSTDGKYFLPIGNELSMGLGLVWTANRFALFNFSKEKAGEDGYTDFNWFRFTNK,not soluble
2,MTDYLNVGKIVNTQGIKGEVRVISKTDFPEERYQKGAMLLLFQEKKAPIELVVKSHRKHKNFDILSFEGHPNINDVEKYRDGILKVAKDNLAELAEDEFYYHQIIGATVYDETGSELGKIKEILSPGANDVWVVQRPKKKDLLLPYIEGVVTKVDVENQRIDVDIPEGLIDDENLEHHHHHH,soluble
3,GMEVIESKWYKKDGASSASIDDVEKLLNTTLPKQYKSFLLWSNGGEGKLGDNYIYIWAIEDVIAYNHDYGIQKYLQKEYWAFGMDGDIGYILHLSDNSIYRVDLGDLDITSIKYIAPSFDDFLGKAIYLNFNKLQNVANNNLTT,soluble
4,MGSDKIHHHHHHMKVALLSPIAWRTPPRHYGPWERVVSLIAEGLVKKGVDVTLFATGDSKTAGRLEYICPIPYEENPNMDAKVWEAMHIAHLFEQAHKFDIIHNNYDFLPLSYSRQVDTPMITTIHGFSSPKILPIYREYNRNNYYVSISNADRSPDLDYYATVYHGIDLNELTLKLNAGSYLLYFGRIHPDKGTAQAIEIARKSDMQLLIAGIIQDKQYFNQQIYPRIDNKKVIYLGSVGPAKRDELLGNALALLHPIHFNEPFGLSVIEAMACGTPVIAFNKGSMPEVIKDGETGFLVDNVEMACEKLGSINKIKRANCRYWVEENFSQERMVSDYLSLYQEIIKGGKLPVRTPSLSGRCK,not soluble
5,GMTNTTYVQEYHAIVEVLSKYNEGGKKADSTIMRPAFSSQATIFGVDVDNKLTGGPIQGLFDVIDNVFHPSPEAKAAIARIDIVGTAASARIDTDDISGFRFTDFFNLLKVEGKWTVVSKIYHTHPSA,soluble
6,MSLVKTYAFGFPKLGEKREFKRLLENYWKGKISQEELIKGMEELNLWRANLYRENVEIIPSNELSYYDFMLDTTVMVGAIPSRFGEYRGLDTYFEMARGKNALELTKWFNTNYHYLVPELEGENFKLLINRPLEDYKFFKEKGINTVPHVIGLFTFLKLSKAPKRVEEEGLPVIILEKLDTKERLEKFTKALLPVYKELLESLKNEGVNRVHFEEPALVTDLEDYDWEILNEIYSELSKVGVDLGILTYYDSVSDYDKFVNLPVKALHFDLVSNEENLKNIKEKGFPEDKELIAGIINGRQPWRANLREKVKLLEELLKVSANLVVSNSCPLYHLPVTVEPEDELPEGLKERLSFAKEKLREIRLIKEALEGKEEALREVESSEKVMTAVFAQNPEVRRRLASLSEKDFQRELPYKERDKIQRDILKLPLFPTTTIGSFPQTEDVRKMRTAYRTGKISEEEYKNFIKQKIKYAIEVQEDIGLDVLVHGEFERSDMVEYFAIKLDGIATTKHGWVLSYGSRVYRPPIIYGDVSRPAPMTLEEITYAQSLTNKPVKGMLTGPVTILNWSYYREDVPKREIAYQIALALLDEVKDLENAGIKVIQIDEPAFREGAPLKKRDWPEYFDWAVKAFRLASRAKPETQIHTHMCYSEFNEIIEYIYQMDFDVISIEASRSKGEIIEVFEKFKGWDRQIGIGVYDIHSPAIPTKEEMKAIMLRAMKVLPKELLWVNPDCGLKTRRWEEVIPALRNMVDMAKELREEVGVKVEGHHHHHH,soluble
7,MTGTGILARPERNHYFSLALAFCSWVRNGYGVFRYSDKELLFLASINGQPAVMADLSGNDADVAQKVSLFLTMNEEPPEKWQVVSPLEHPDNWESIITRLSSADLRRCKLTVGNRSKFTLPAVLFLVAASAGTVFWMTQPEPDVVPTPEEIAARARLQFKKPDPPPELPHPWASQPVISDFLKACADLRKPSPVALEGWKLTGGTCTPETFTLIYERQPGGTIEGFLARSKEIFNVIPDFNLKDGARLASVTRPLPSLPRRDEAVPTPSEQLMRVFTWFQKKQLTPAINEIAIPEPLPGNDGEPAPVQKWKEYQFSLSTPVNPDELFPLFQDTGVRLSNIHFELNGGTFSYSSEGHIYASRLEHHHHHH,not soluble
8,GMTEAFPALVRQDDARYAITVGPDLAVGPPGHAYLFGGASMALALDVAAETVGRPVVQGSLQFVSFTPLGSVLDLTVEVLQSGRTLAQARVAGTVDGRLVFHSGISLGMREGFSARQWALAPPVPQPDNCPPCTTLPAQDDNARYLEGIEVREAGGPEVPSGRTRLWLRRKDGAPLDAASLAMFADFLPIALGRATGCSGGGNSLDNSLRITGAAAPGWCLCDMIIPSSASGFAQGQVTLWDQSGRLLATGAQSLLLKG,soluble
9,QGHMPSDSKKPTIIYPCLWDYRVIMTTKDTSTLKELLETYQRPFKLEFKNTSKNAKFYSFNVSMEVSNESERNEIFQKISQLDKVVQTLGS,soluble
10,MDFKQRHTWLKIASCKSISAKKRASIWQKLTEFDQYEMTTQTFAESFFPVDKLAQILMELETAEACFFDDVTLIWILDDAYPALLREIYEAPPILFCKGNIDLLQQQAIAIVGTRQMSEYGRKACMKIASELAENKLTIVSGMAIGIDSTAHRATLNKQGATIAVLGSGVNKVYPKKNELLAKEIVKEGLLLSEYLPDEEAKRWHFPERNRIISGLAIGTVIIEAAERSGSLITADIALEQNRQVFAVPGNIFIDTWQGTNYLIQEGAKLVMNSNNIIEEFIQIKP,not soluble
11,MGSDKIHHHHHHMKIDSEHLEILAVIVEKGGLTEGAEALGKSQPSVSRTMALLEERIGTPLFEAGRRPLRPTELGNQLARLGAKIRTQNLEASRLVQRYRQGQAGRLRLGGTPIFFDGVVAGMVAEFQNRHSDVQITQTYGYFEDLSAGLRSGALDLAILPMHANMIPADMQFTPLLAGRNVIVGSATHPLARRGAITLADIEPYSWIAPPPDSPLFRDLQRSLKSIGLDDFKVSFSGGTLASIFSVVLGSDSLTVLPYSVVFTHQRVIPLQALPLRIEHPDRQLGLLTATERMPPPALERFVAFVTEKFKHLSTRMEHEQQVTRRRG,not soluble
12,MHHHHHHSSGVDLGTENLYFQSNAMELKDYYAILGVQPTDDLKTIKTAYRRLARKYHPDVSKENDAEAKFKDLAEAWEVLKDEQRRAEYDQLWQHRNDPGFGRQRQTHEQSYSQQDFDDIFSSMFGQQAHQRRRQHAARGHDLEIEVAVFLEETLAEQTRTISYNLPVYNVFGMIESETPKTLNVKIPAGVVDGQRIRLKGQGTPGENGGPNGDLWLVIHIAPHPLFDIVGHNLEIVLPLAPWEAALGAKVTVPTLKESILLTVPPGSQAGQRLRIKGKGLVSKTHTGDLFAVIKIVMPTKPDEKARELWQQLAAAEASFDPRKTWGKA,soluble
13,MNKKSSSMVNMPAPREPINQKIDTNNALVLNHNAIYEQRLAEITQSNTCDKAIVTVNPYGTAPLSLYLGVWMDEAAALEINVVDSEATTEEVRYQYDVHPGANLIPVCGMVSAVNNQITLRLASQIVGQYTVMTDALPPTDSANVSLGFPIISVSCPAQQASLMEEGLYFSTYFDRYNLAFDHNGIVRWYVSQEIPSYNFVRMDNGHFLATSQGINHCLNMYEFDIMGRVYTVYLLDNEFHHSILPIENNLAIAPSEYSNGRPDGYSTGKDGVSIINLSTGLEVAYYDMLYVMDYSRSPRPSGSAPGQDVSMDDWLHINQSYINEPNNLLICSGRHQSAIFGVNVDSGELRFIMANHEDWSDEFKQYLLTPVDDDGVPLYDLTSPGGIDAADKNFWTWGQHNIVEIPNDEPGILEFMVFDNGNYRSREDAKSLLPLDNFSRVVQFKINLNTMTVTRPYEYGKTEVGNRGYSSFVSAKHLLTNGHLVIHFGATTVDEFEHTITAQPGSSDLVDPDEGQQALGRLVLQEINKETKEVLFEAMVTSGYFKNEETNGTNYRYDISAFRVYKMPLFA,not soluble
14,MSLLRIIDTETCGLQGGIVEIASVDVIDGKIVNPMSHLVRPDRPISPQAMAIHRITEAMVADKPWIEDVIPHYYGSEWYVAHNASFDRRVLPEMPGEWICTMKLARRLWPGIKYSNMALYKTRKLNVQTPPGLHHHRALYDCYITAALLIDIMNTSGWTAEQMADITGRPSLMTTFTFGKYRGKAVSDVAERDPGYLRWLFNNLDSMSPELRLTLKHYLENTEGHHHHHH,soluble
15,MSLYSDSVTHCLQTCNSPYQKSEKDHRRLSLFAARLFLYNLALFNQFDISMTQSIWRSVTPQFEQFNKVFENYPNLAPISLIEIQPRLTSALEQFVHLKGFSRILLINAPDNSIYRSLFKDALLEQDLDVPVVSTETLDISEILGQVKVEHGGLVHKTSGYLEQANGGYLIVSANLLLANPRYWPTVKAAVLGETVSPINCDPKSPLPNRLGSSYDVKLIVVGDRTQLGDLDFLDADIHSGLCLFSELELDLKIEEETIEDYLGYLRWLCEQYNLPSLTCSAIQSLMTAGARYTEDQYYAPLCLMWHRALLEEARLESEEPLIDAEHIEIALDKRYLRESYLPERALDDILDGQVIIETQGEQVGQVNGLTVIEVTGHPMPYGEPARISCVIHFGDGDIADVERKVELGGNLHAKGMMIMQAFVSSALNLDGSLPFSASIVFEQSYSEVDGDSASLAELCSLVSALSEYPIDQQIAVTGAVDQFGRVQAVGGLNEKIEGFYRVCCHQGLTGEQGVILPSSNLKHLALHKSVVESIKNGEFNIWPVSTVDEAIPLLMGKPFRGEDEGHHHHHH,not soluble
16,MTFSLFGDKFTRHSGITLLMEDLNDGLRTPGAIMLGGGNPAQIPEMQDYFQTLLTDMLESGKATDALCNYDGPQGKTELLTLLAGMLREKLGWDIEAQNIALTNGSQSAFFYLFNLFAGRRADGRVKKVLFPLAPEYIGYADAGLEEDLFVSARPNIELLPEGQFKYHVDFEHLHIGEETGMICVSRPTNPTGNVITDEELLKLDALANQHGIPLVIDNAYGVPFPGIIFSEARPLWNPNIVLCMSLSKLGLPGSRCGIIIANEKIITAITNMNGIISLAPGGIGPAMMCEMIKRNDLLRLSETVIKPFYYQRVQETIAIIRRYLPEDRCLIHKPEGAIFLWLWFKDLPITTEQLYQRLKARGVLMVPGHNFFPGLDKPWPHTHQCMRMNYVPEPEKIEAGVKILAEEIERAWAESH,soluble
17,LNSPMITIVGTRTMTNYGKKILEEFVPKIIDSGIAVVSGLAKGIDAYAHQLALEKQGTAIAVIGNGTNISYPAENQSIQKRIISDGLLLSEYFPKSRPKQYHFPARNRILAGLTSATLVVEAKERSGSLITAAYATQENRNVLAIPGDLNRNNSNGTNQLIADGAKAVLKIDDILNE,not soluble
18,MGSDKIHHHHHHMSLILELKNISKHYPGVKALETVSLRLFSGEVHALLGENGAGKSTLVKVMTGAQSKDGGEIIFLNEKQHFNTPIEAQKIGISTVYQEVNLVPNLTVAQNLFLGHEPKRFGLIHFQKMYADARTVLTQFKLDIDVSAPLSSYSIAVQQLIAIARGVAMSAKVLVLDEPTASLDADEVQVLFGILNQLKQKGVAIVFITHFLDQVYQISDRITVLRNGRFIGEYLTSELPQPQLIEAMLGRSLQQHLVEKTSAEQTTNGTSAVLLSLEGVSVKGSIQSMNLTVPKGQAVGLAGLLGSGRSEVCNAVFGLDLLDSGSIHLAGKKLHLSHPVDAINAGIALCPEDRKVDGIIGPLSIRENIILALQARVGWWRCLSKTRQQEIAQFFIDKLQIATPDADKPIEQLSGGNQQKVILARWLAIEPILLVLDEPTRGIDIGAHAEIIKLIRTLCDDGMSLLVASSELDELVAFSNKVVVLRDRYAVRELSGSELTSQHVMQAIAEG,not soluble

# Reference: the DeepSol protein solubility set
